Data set [1] concerns the target histone H1.
Data set [2] addresses myelin basic protein.

B1: Hunk (Hormonally Up-regulated, Neu-Tumor-Associated Kinase), mouse, 714-amino-acid ~80-kDa polypeptide (protein)
chain: MPAAAGDGLLGEPAAPGGDGGAEDTTRPAAACEGSFLPAWVSGVSRERLRDFQHHKRVGNYLIGSRKLGEGSFAKVREGLHVLTGEKVAIKVIDKKRAKKDTYVTKNLRREGQIQQMIRHPNITQLLDILETENSYYLVMELCPGGNLMHKIYEKKRLDEAEARRYIRQLISAVEHLHRAGVVHRDLKIENLLLDEDNNIKLIDFGLSNCAGILGYSDPFSTQCGSPAYAAPELLARKKYGPKIDVWSIGVNMYAMLTGTLPFTVEPFSLRALYQKMVDKAMNPLPTQLSTGAVNFLRSLLEPDPVKRPNIQQALANRWLNENYTGKVPCNVTYPNRISLEDLSPSVVLHMTEKLGYKNSDVINTVLSNRACHILAIYFLLNKKLERYLSGKSDIQDSICYKTQLYQIEKCRATKEPYEASLDTWTRDFEFHAVQDKKPKEQEKRGDFLHRPFSKKLDKNLPSHKQPSPSLITQLQSTKALLKDRKASKSGFPDKDSFVCRNLFRKTSDSNCVASSSMEFIPVPPPRTPRIVKKLEPHQPGPGSASILPKEEPLLLDMVRSFESVDREDHIELLSPSHHYRILSSPVSLARRNSSERTLSQGLLSGSTSPLQTPLHSTLVSFAHEEKNSPPKEEGVCSPPPVPSNGLLQPLGSPNCVKSRGRFPMMGIGQMLRKRHQSLQPSSERSLDASMSPLQPIAPSSLSFDMADGVKGQC
For B1, the “in vitro kinase assay of Hunk immunoprecipitates with [gamma-32P]ATP” value in data set [1] is “Hunk immunoprecipitates were able to phosphorylate both histone H1 and MBP in vitro”; in data set [2], “Hunk immunoprecipitates were able to phosphorylate both histone H1 and MBP in vitro”. For the same protein, the “in vitro kinase assay of anti-Hunk immunoprecipitates with gamma-32P-ATP and histone H1” value in data set [1] is recorded as “Hunk-associated kinase activity was substantially greater in immunoprecipitates prepared from transgenic when compared with wild type mammary glands”.

Source of the values: patent US20140234321.
